Laboratory results reported in paper PMC12337650 (iScience, 2025).

Biological target: the molecule itself
Test: cross-linking

B1: hIRE1α(CD) (residues 469–977) (domain or fragment)
chain: HQQQQLQHQQFQKELEKIQLLQQQQQQLPFHPPGDTAQDGELLDTSGPYSESSGTSSPSTSPRASNHSLCSGSSASKAGSSPSLEQDDGDEETSVVIVGKISFCPKDVLGHGAEGTIVYRGMFDNRDVAVKRILPECFSFADREVQLLRESDEHPNVIRYFCTEKDRQFQYIAIELCAATLQEYVEQKDFAHLGLEPITLLQQTTSGLAHLHSLNIVHRDLKPHNILISMPNAHGKIKAMISDFGLCKKLAVGRHSFSRRSGVPGTEGWIAPEMLSEDCKENPTYTVDIFSAGCVFYYVISEGSHPFGKSLQRQANILLGACSLDCLHPEKHEDVIARELIEKMIAMDPQKRPSAKHVLKHPFFWSLEKQLQFFQDVSDRIEKESLDGPIVKQLERGGRAVVKMDWRENITVPLQTDLRKFRTYKGGSVRDLLRAMRNKKHHYRELPAEVRETLGSLPDDFVCYFTSRFPHLLAHTYRAMELCSHERLFQPYYFHEPPEPQPPVTPDAL
binding result: binds
